# Results from paper PMC9927398.
# T1: CRP WT (CRPMtb) (Mycobacterium tuberculosis (strain for …, UniProt P9WMH3 1-224))
# T1 sequence: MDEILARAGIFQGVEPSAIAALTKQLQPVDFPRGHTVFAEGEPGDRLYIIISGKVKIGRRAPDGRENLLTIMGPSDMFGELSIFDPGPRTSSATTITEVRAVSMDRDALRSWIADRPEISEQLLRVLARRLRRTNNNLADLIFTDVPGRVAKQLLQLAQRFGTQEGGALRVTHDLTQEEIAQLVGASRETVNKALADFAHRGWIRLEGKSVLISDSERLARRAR
# B1: 2D3 (dsDNA)
# DNA 1: CTCTATGTGACGAAGCCCACATCGAC
# DNA 2: GTCGATGTGGGCTTCGTCACATAGAG
# B2: 2D3 unlabeled competitor (dsDNA)
# DNA 1: CTCTATGTGACGAAGCCCACATCGAC
# DNA 2: GTCGATGTGGGCTTCGTCACATAGAG
# What was measured:
# CRP WT (CRPMtb) [1] = molecular target: T1, CRP WT (CRPMtb); assay: EMSA; no cAMP; 5 and 15 uM protein; details: protein: recombinant; tags: His tag (Ni2+ purified; pET28a); chain copies: 2; blunt
# CRP WT (CRPMtb) [2] = molecular target: T1, CRP WT (CRPMtb); assay: competition; details: protein: recombinant; tags: His tag (Ni2+ purified; pET28a); chain copies: 2; blunt
binder,measurement,setting,value
B1,binding result,CRP WT (CRPMtb) [1],binds
B2,binding result,CRP WT (CRPMtb) [2],binds
